Columns and labels:
[1] = Toxicity assessment in r-Tinagl1 treated mice (body weight, CBC, H&E and Alcian blue staining, ALT, AST); format: in vivo; conditions: ALT and AST activity
Excerpt: To test if recombinant Tinagl1 protein (r-Tiangl1) treatment would slow tumor progression, full length recombinant human Tinagl1 with 6×His tag at the C-terminus (r-Tinagl1) was expressed in HEK293T cells and r-Tinagl1 was purified from the culture media using Ni^2+-NTA purification system. r-Tinagl1 was used to treat orthotopically implanted mammary tumors.

SUM159-M1a tumor cells = assay: 3D in vitro tumor sphere growth assay; format: cell-based, human
Description: To directly test the tumor-specific inhibitory effects of Tinagl1, a 3D in vitro tumor sphere growth assay was performed. Tinagl1-overexpressing SUM159-M1a tumor cells formed significant fewer and smaller spheres.

[2] = system: primary tumors and lung lesions; assay: IHC staining of primary tumors and lung samples for proliferation and apoptosis markers; format: in vivo, mice; conditions: versus PBS
Excerpt: FIGS. 7A-7D are graphs indicating the percentage of Ki67^+ (FIGS. 7A and 7B) and cleaved caspase-3^+ (FIGS. 7C, 7D) cells counted in primary tumor (FIGS. 7A, 7C) and spontaneous lung metastasis (FIGS. 7B, 7D) samples from mice treated with r-Tinagl1(711, 721, 731, 741) or PBS (710, 720, 730, 740) collected for H&E and IHC staining with indicated antibodies.
To address how Tinagl1 inhibits primary tumor growth and metastasis, primary tumors and corresponding lung samples were stained for proliferation and apoptosis markers. […] Consistent results were also observed in the staining of the tissues collected from the mice injected with the SUM159-M1a cells.
TIC staining was performed as previously described (Wan et al., 2014). Briefly, Paraffin-embedded primary tumor or lung samples were sliced into 4 μm thickness. The slides were baked overnight at 60° C. Next, the tissue slides were washed with PBS after deparaffinization and hydration and then boiled in citrate buffer at 100° C. for 40 min. After treated with 3% H2O2 for 30 min to block endogenous peroxidase, slides were incubated at 4° C. overnight with Ki67 (Leica Biosystem, Ki67-MM1-L-CE-S), cleaved caspase-3 (Cell signaling, 9661S), p-EGFR (Cell signaling, 3777), p-FAK (Cell signaling, 8556), CD31 (Cell signaling, 77699), -SMA (Sigma, A5228), or Tinagl1 (Sigma, HPA048695) antibodies. […]

EGFR and FAK pathways = assay: EGFR and FAK pathway activation in SUM159-M1a cells on FN (WB, FIG. 12); format: cell-based, human
Description: FIG. 12 is an image of WB analyses where a 6-well plate was coated with 10 μg/ml of FN or 10 μg/ml of FN+r-Tinagl1, then SUM159-M1a cells were serum starved for 24 hr, and then seeded on the plate with the media contain 10% FBS and 1 ng/ml of EGF, and then 3 hr after seeding, the cells were treated with […] FAK inhibitor 14 (FAKi) for 2 hr, followed by 1 hr treatment of 100 nM Erlotinib (Erlo), 1 μg/ml r-Tinagl1 alone or combined, and finally the cells were treated with 1 ng/ml of EGF for another 10 min, and then collected for WB analysis.
Furthermore, p-AKT and p-ERK levels were lowered in r-Tinagl1 treated samples that samples treated with either FAK inhibitor 14 (FAKi) and or EGFR inhibitor Erlotinib (Erlo) alone.

EGFR dimerization = target: T1, EGFR dimerization (Homo sapiens, UniProt P00533); assay: EGFR dimerization in LM2 cells (co-IP of EGFR-GFP/EGFR-Myc; DSS cross-linking); format: cell-based; conditions: 1 μg/ml r-Tinagl1 1 hr
T1 construct: host or cells: LM2
Description: FIG. 14A is an image of WB analyses where LM2 cells were transfected with plasmids to overexpress GFP-EGFR and EGFR-Myc. 48 hr after transfection, the cells were treated with or without 1 μg/ml of r-Tinagl1 for 1 hr, followed by 10 min of 1 ng/ml EGF treatment, then collected and immunoprecipitated with either IgG or anti-Myc antibody, after which the IP samples were subjected to WB analysis.
FIG. 14B is a graph illustrating the quantified amount of EGFR-GFP that interacts with EGFR-Myc, normalized to PBS treatment group.
FIG. 14C is an image of WB analyses where LM2 cells stably expressed EGFR-Myc were pretreated with PBS or 1 μg/ml of r-Tinagl1 for 1 hr, treated with 1 ng/ml of EGF for another 10 min, then cells were collected and the dimers were cross-linked with disuccinimidyl suberate (DSS) treatment, followed by WB analysis.
FIG. 14D is a graph illustrating the ratio of dimerized EGFR in each treatment group that was quantified.
Whether Tinagl1 prevents EGFR dimerization independent of interfering with EGF binding to EGFR was tested. […] To further validate this conclusion, LM2 cells with EGFR-Myc stably expressed were treated with EGF or r-Tinagl1 alone or combination. […]
The assay was performed as previously described (Wang et al., 2015). […] Finally, the cells were then lysed with IP lysis buffer for 20 min on ice, and EGFR dimerization was analyzed by WB.

[3] = system: primary tumors and lung metastases; assay: IHC staining of tumor samples from treatment groups (Ki67, Casp3, CD31, α-SMA); format: in vivo, NSG female mice
Description: FIGS. 17F-17I are graphs quantifying positives cells per field where primary tumors were collected from indicated treatment groups from FIG. 17D and then subjected to IHC staining with indicated antibodies, including % Ki67^+ (17F), % Casp3^+ (17G), % CD31^+ (17H), and % α-SMA^+ (17I).
TIC staining was performed as previously described (Wan et al., 2014). Briefly, Paraffin-embedded primary tumor or lung samples were sliced into 4 μm thickness. The slides were baked overnight at 60° C. Next, the tissue slides were washed with PBS after deparaffinization and hydration and then boiled in citrate buffer at 100° C. for 40 min. After treated with 3% H2O2 for 30 min to block endogenous peroxidase, slides were incubated at 4° C. overnight with Ki67 (Leica Biosystem, Ki67-MM1-L-CE-S), cleaved caspase-3 (Cell signaling, 9661S), p-EGFR (Cell signaling, 3777), p-FAK (Cell signaling, 8556), CD31 (Cell signaling, 77699), -SMA (Sigma, A5228), or Tinagl1 (Sigma, HPA048695) antibodies. Following washes with PBS, slides were then incubated with HRP-conjugated goat anti-rabbit or mouse secondary antibody (Genetech) for 30 min at room temperature. Sections were stained by DAB and then counterstained with Gill hematoxylin according to manufacturer's instructions.

B1: r-Tinagl1: full length recombinant human Tinagl1 with 6×His tag at the C-terminus [SEQ ID NO.: 24], expressed in HEK293T cells (protein, listed as Homo sapiens)
chain: MWRCPLGLLLLLPLAGHLALGAQQGRGRRELAPGLHLRGIRDAGGRYCQEQDLCCRGRADDCALPYLGAICYCDLFCNRTVSDCCPDFWDFCLGVPPPFPPIQGCMHGGRIYPVLGTYWDNCNRCTCQENRQWQCDQEPCLVDPDMIKAINQGNYGWQAGNHSAFWGMTLDEGIRYRLGTIRPSSSVMNMHEIYTVLNPGEVLPTAFEASEKWPNLIHEPLDQGNCAGSWAFSTAAVASDRVSIHSLGHMTPVLSPQNLLSCDTHQQQGCRGGRLDGAWWFLRRRGVVSDHCYPFSGRERDEAGPAPPCMMHSRAMGRGKRQATAHCPNSYVNNNDIYQVTPVYRLGSNDKEIMKELMENGPVQALMEVHEDFFLYKGGIYSHTPVSLGRPERYRRHGTHSVKITGWGEETLPDGRTLKYWTAANSWGPAWGERGHFRIVRGVNECDIESFVLGVWGRVGMEDMGHHVDHHHHHH
modifications: C-terminal 6xHis tag
**Q.** For B1, which “hematologic, GI tract, and liver toxicity” value [1] is on record?
**A.** no significant hematologic, GI tract, and liver toxicity

**Q.** And the “hematologic, GI tract, and liver toxicity” value ([1]; listed as recombinant Tinagl1 protein)?
**A.** without causing significant toxicity

**Q.** And the “number and size of tumor spheres” value (SUM159-M1a tumor cells)?
**A.** reduced the number and size of tumor spheres

**Q.** What about the “Ki67+ cells” value [2] of the same molecule?
**A.** significantly fewer

**Q.** What about the “cleaved caspase-3+ apoptotic cells” value [2] of the same molecule?
**A.** no difference

**Q.** And the “activation of EGFR and FAK pathways (p-EGFR, p-FAK, p-ERK, p-AKT)” value (EGFR and FAK pathways; 1 μg/ml r-Tinagl1, 1 hr)?
**A.** inhibited the activation of both EGFR and FAK pathways

**Q.** And the “p-AKT and p-ERK levels versus FAKi or Erlo alone” value (EGFR and FAK pathways; FAKi, 100 nM Erlo, 1 μg/ml r-Tinagl1)?
**A.** lowered

**Q.** And the “amount of EGFR-GFP bound by EGFR-Myc” value (EGFR dimerization; in the presence of EGF)?
**A.** significantly reduced the amount of EGFR-GFP bound by EGFR-Myc

**Q.** And the “dimer form of EGFR (DSS cross-linking)” value (EGFR dimerization; then EGF)?
**A.** reduced

**Q.** What about the “CD31+ endothelium” value ([3]; primary and lung metastasis) of the same molecule?
**A.** significantly reduced

**Q.** What about the “tumor cell proliferation (Ki67 staining)” value ([3]; primary tumor and lung metastatic nodules) of the same molecule?
**A.** strong anti-proliferative effects on both primary tumors and lung metastases

— patent US20210379147A1, “METHOD AND SYSTEM FOR TREATING CANCER UTILIZING TINAGL1” (The Trustees of Princeton University, priority 2018, published 2021)
